Test results as given in patent US20120219551A1.
Where “and” joins values, the source holds several entries; their conditions need not be identical. Equal entries are not always repeated. Values belong to the substance of their own block, whether it stands above or below them.

Experiments:
[1] = biological target: FcγRIIIA (CD16A), F158 allotype (human) (UniProt P08637)
[2] = biological target: 2bFcagl (FcγRIIB-Fc fusion) (human) (UniProt P31994)
[3] = biological target: 2aRFcagl (FcγRIIA 131R-Fc fusion) (human) (UniProt P12318)
Sequence of 2aRFcagl (FcγRIIA 131R-Fc fusion) (human) (P12318 34-217 H167R): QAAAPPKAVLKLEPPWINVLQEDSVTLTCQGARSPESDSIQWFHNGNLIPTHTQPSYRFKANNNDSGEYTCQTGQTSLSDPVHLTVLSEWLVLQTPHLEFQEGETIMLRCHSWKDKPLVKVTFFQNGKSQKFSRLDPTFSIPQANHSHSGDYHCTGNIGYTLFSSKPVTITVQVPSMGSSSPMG

[4] = biological target: 2aHFcagl (FcγRIIA 131H-Fc fusion) (human) (UniProt P12318)
Sequence of 2aHFcagl (FcγRIIA 131H-Fc fusion) (human) (P12318 34-217): as the sequence (P12318 34-217 H167R) above, with R134H counted along it

[5] = biological target: FcγRIIIA (CD16A), V158 allotype (human) (UniProt P08637)
Sequence of FcγRIIIA (CD16A), V158 allotype (human) (P08637 17-208 F176V limits assumed): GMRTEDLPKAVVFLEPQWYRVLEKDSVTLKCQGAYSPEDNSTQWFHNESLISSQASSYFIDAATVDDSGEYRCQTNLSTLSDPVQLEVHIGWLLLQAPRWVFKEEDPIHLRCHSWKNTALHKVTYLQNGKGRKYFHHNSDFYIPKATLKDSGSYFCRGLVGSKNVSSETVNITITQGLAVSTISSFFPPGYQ

[6] = biological target: FcγRIIIA on natural killer cells of human donor PBMC (human) (UniProt P08637); experiment: cell-based or functional assay
Sequence of FcγRIIIA on natural killer cells of human donor PBMC (human) (P08637 17-254): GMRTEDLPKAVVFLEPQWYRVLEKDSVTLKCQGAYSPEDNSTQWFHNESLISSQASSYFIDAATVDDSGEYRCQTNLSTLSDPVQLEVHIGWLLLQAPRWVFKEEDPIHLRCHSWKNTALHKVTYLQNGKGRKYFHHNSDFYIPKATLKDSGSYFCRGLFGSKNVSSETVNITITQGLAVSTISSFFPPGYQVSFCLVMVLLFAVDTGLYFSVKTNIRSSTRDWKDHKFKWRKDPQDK

[7] = biological target: soluble dimeric FcγRIIB-Fc fusion protein (extracellular domain of FcγRIIB fused to hinge-CH2-CH3 of human IgG2) (human) (UniProt P31994); experiment: SPR (BIAcore), Fc mutant in ch4-4-20, off rate relative to wild type
Sequence of soluble dimeric FcγRIIB-Fc fusion protein (extracellular domain of FcγRIIB fused to hinge-CH2-CH3 of human IgG2) (human) (P31994 43-217): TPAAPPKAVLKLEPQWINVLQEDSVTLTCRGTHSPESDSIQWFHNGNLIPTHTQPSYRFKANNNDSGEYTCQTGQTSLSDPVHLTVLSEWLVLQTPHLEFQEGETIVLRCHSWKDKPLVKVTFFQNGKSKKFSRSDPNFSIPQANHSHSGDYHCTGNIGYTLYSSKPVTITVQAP

[8] = biological target: soluble monomeric FcγRIIIA 158V (extracellular region joined to linker-AVITAG) (human) (UniProt P08637); experiment: as above
Sequence of soluble monomeric FcγRIIIA 158V (extracellular region joined to linker-AVITAG) (human) (P08637 17-208 F176V): as the sequence (P08637 17-208 F176V limits assumed) above

[9] = biological target: FcγRIIB, soluble dimeric protein (extracellular domain fused to the hinge-CH2-CH3 domain of human IgG2) (human) (UniProt P31994); experiment: ELISA
Sequence of FcγRIIB, soluble dimeric protein (extracellular domain fused to the hinge-CH2-CH3 domain of human IgG2) (human) (P31994 43-217): as the sequence (P31994 43-217) above

CD16A(V158) (human) = CD16A(V158) (human) (UniProt P08637); experiment: relative off-rate wt/variant; method not given (BIAcore elsewhere)
Sequence of CD16A(V158) (human) (P08637 17-208 F176V): as the sequence (P08637 17-208 F176V limits assumed) above

CD16A(F158) (human) = CD16A(F158) (human) (UniProt P08637); experiment: as above
Sequence of CD16A(F158) (human) (P08637 17-208): as the sequence (P08637 17-208 F176V limits assumed) above, with V160F counted along it

CD32B-G2Ag (human) = CD32B-G2Ag (human) (UniProt P31994); experiment: as above
Sequence of CD32B-G2Ag (human) (P31994 43-217): as the sequence (P31994 43-217) above

CD32A-G2Ag (human) = CD32A-G2Ag (human) (UniProt P12318); experiment: as above
Sequence of CD32A-G2Ag (human) (P12318 34-217): as the sequence (P12318 34-217 H167R) above, with R134H counted along it

[10] = biological target: soluble monomeric FcγRIIIA (extracellular region of FcγRIIIA joined to the linker-AVITAG sequence) (human) (UniProt P08637); experiment: ELISA
Sequence of soluble monomeric FcγRIIIA (extracellular region of FcγRIIIA joined to the linker-AVITAG sequence) (human) (P08637 17-208): as the sequence (P08637 17-208 F176V limits assumed) above, with V160F counted along it

[11] = biological target: soluble dimeric FcγRIIB-Fc fusion protein (extracellular domain of FcγRIIB fused to hinge-CH2-CH3 of human IgG2) (human) (UniProt P31994); experiment: ELISA
[12] = biological target: soluble monomeric FcγRIIIA (extracellular region of FcγRIIIA joined to the linker-AVITAG sequence) (human) (UniProt P08637); experiment: SPR (BIAcore), Ab captured on BSA-FITC, separate fit 200/800 nM
[13] = biological target: soluble dimeric FcγRIIB-Fc fusion protein (extracellular domain of FcγRIIB fused to hinge-CH2-CH3 of human IgG2) (human) (UniProt P31994); experiment: as above
[14] = biological target: FcγRIIIA (CD16A), F158 allotype (human) (UniProt P08637); experiment: not stated; human FcRs
FcγRIIB (CD32B) (human) [15] = biological target: FcγRIIB (CD32B) (human) (UniProt P31994); experiment: not stated; human FcRs
Sequence of FcγRIIB (CD32B) (human) (P31994 43-217 limits assumed): as the sequence (P31994 43-217) above

[16] = biological target: FcγRIIIA (CD16A), V158 allotype (human) (UniProt P08637); experiment: not stated; human FcRs
[17] = biological target: FcγRIIA (CD32A), H131 allotype (human) (UniProt P12318); experiment: not stated; human FcRs
Sequence of FcγRIIA (CD32A), H131 allotype (human) (P12318 34-217 limits assumed): as the sequence (P12318 34-217 H167R) above, with R134H counted along it

[18] = biological target: FcγRIIIA (CD16A), F158 allotype (human) (UniProt P08637); experiment: BIAcore (as Table 27)
FcγRIIB (CD32B) (human) [19] = biological target: FcγRIIB (CD32B) (human) (UniProt P31994); experiment: BIAcore (as Table 27)
[20] = biological target: FcγRIIIA (CD16A), V158 allotype (human) (UniProt P08637); experiment: BIAcore (as Table 27)
[21] = biological target: FcγRIIIA (CD16A), F158 allotype (human) (UniProt P08637); experiment: BIAcore
FcγRIIB (CD32B) (human) [22] = biological target: FcγRIIB (CD32B) (human) (UniProt P31994); experiment: BIAcore
[23] = biological target: FcγRIIIA (CD16A), V158 allotype (human) (UniProt P08637); experiment: BIAcore
[24] = biological target: FcγRIIA (CD32A), H131 allotype (human) (UniProt P12318); experiment: BIAcore
FcγRIIB (CD32B) (human) [25] = biological target: FcγRIIB (CD32B) (human) (UniProt P31994); experiment: BIAcore (as Table 27); cells shifted one column to the left

Sequence of FcγRIIIA (CD16A), F158 allotype (human) (P08637 17-208 limits assumed): as the sequence (P08637 17-208 F176V limits assumed) above, with V160F counted along it
Sequence of 2bFcagl (FcγRIIB-Fc fusion) (human) (P31994 43-217): as the sequence (P31994 43-217) above

Substance: immunoglobulin with Fc variant L234F, F243L, R292P, Y300L (antibody)
binding relative to wt (wt = 1) [1]: 1.6
binding relative to wt (wt = 1) [2]: 0.2
binding relative to wt (wt = 1) [3]: 0.2
binding relative to wt (wt = 1) [4]: 0.3
binding relative to wt (wt = 1) [5]: 1.7

Substance: Fc variant K370N, S440N (antibody)
fold change vs WT [9]: 3.5 fold

Substance: ch4-4-20 MgFc39 (E293V, Q295E, A327T) (antibody)
Relative rate of lysis (ADCC, vs wild type ch4-4-20) [6]: 4.29
Koff WT/Mut [7]: 1.3
Koff WT/Mut [8]: 0.86

Substance: immunoglobulin with Fc variant F243L, R292P (antibody)
Koff WT/Koff mutant (FcγRIIB (CD32B) (human) [25]): 0.12
fold change vs wild-type affinity [14]: 0.7 fold
fold change vs wild-type affinity (FcγRIIB (CD32B) (human) [15]): -5.3 fold
fold change vs wild-type affinity [16]: 3 fold
fold change vs wild-type affinity [17]: -0.9 fold
Koff WT/Koff mutant [18]: 1.67
Koff WT/Koff mutant (FcγRIIB (CD32B) (human) [19]): 0.12 and 0.16
Koff WT/Koff mutant [20]: 4.73 and 4
Koff WT/Koff mutant [21]: 0.6 and 1.67
Koff WT/Koff mutant (FcγRIIB (CD32B) (human) [22]): 0.12 and 0.16
Koff WT/Koff mutant [23]: 4.73 and 4
Koff WT/Koff mutant [24]: 0.34 and 0.52

Substance: immunoglobulin with Fc variant Y300L (antibody)
fold change vs wild-type affinity [14]: 0.2 fold
fold change vs wild-type affinity (FcγRIIB (CD32B) (human) [15]): 0.2 fold
fold change vs wild-type affinity [16]: 0 fold
fold change vs wild-type affinity [17]: 1.9 fold
Koff WT/Koff mutant (FcγRIIB (CD32B) (human) [19]): 1.18
Koff WT/Koff mutant [20]: 1.01
Koff WT/Koff mutant [21]: 1.17
Koff WT/Koff mutant (FcγRIIB (CD32B) (human) [22]): 1.18
Koff WT/Koff mutant [23]: 1.01
Koff WT/Koff mutant [24]: 1.86

Substance: immunoglobulin with Fc variant S298A, E333A, K334A (control AAA) (antibody)
fold change vs wild-type affinity [14]: 0.1 fold
fold change vs wild-type affinity (FcγRIIB (CD32B) (human) [15]): -2.5 fold
fold change vs wild-type affinity [16]: 0.6 fold
fold change vs wild-type affinity [17]: -3.3 fold

Substance: ch4-4-20 MgFc43 (Y319F, P352L, P396L) (antibody)
Relative rate of lysis (ADCC, vs wild type ch4-4-20) [6]: 1.09
Koff WT/Mut [7]: 2.29
Koff WT/Mut [8]: 1.23

Now from value to substance, other results behind:

Koff WT/Mut [7]: 1.04
Koff WT/Mut [8]: 0.92
Substance: ch4-4-20 MgFc41 (H268N, P396L) (antibody)
Relative rate of lysis (ADCC, vs wild type ch4-4-20) [6]: 2.24

binding relative to wt (wt = 1) [1]: 3.3
binding relative to wt (wt = 1) [2]: 0.2
binding relative to wt (wt = 1) [3]: 0.1
binding relative to wt (wt = 1) [4]: 0.5
binding relative to wt (wt = 1) [5]: 2.6
Substance: immunoglobulin with Fc variant L235I, F243L, R292P, Y300L (antibody)

fold change vs WT [9]: 6 fold
Substance: Fc variant D221Y, M252I, A330G, A339T, T359N, V422I, H433L (antibody)

Koff ratio (wt/mut) (CD16A(V158) (human)): 10.1 wt/mut
Koff ratio (wt/mut) (CD16A(F158) (human)): 8.3 wt/mut
Koff ratio (wt/mut) (CD32B-G2Ag (human)): 3.2 wt/mut
Koff ratio (wt/mut) (CD32A-G2Ag (human)): 1.4 wt/mut
Substance: Antibody ch2.4G2 Fc Variant 51 (F243L, R292P, Y300L, V305I, P396L)

Koff ratio (wt/mut) (CD16A(V158) (human)): 2.6 wt/mut
Koff ratio (wt/mut) (CD16A(F158) (human)): 1.4 wt/mut
Koff ratio (wt/mut) (CD32B-G2Ag (human)): 0.2 wt/mut
Koff ratio (wt/mut) (CD32A-G2Ag (human)): 0.1 wt/mut
Substance: Antibody 2B6 3.5 Fc Variant 48 (F243L, R292P, V305I)

binding relative to wt (wt = 1) [4]: 0.2
binding relative to wt (wt = 1) [5]: 1.8
Substance: immunoglobulin with Fc variant L235Q, F243L, R292P, Y300L (antibody)

ELISA, OD [10]: 1.25 OD
ELISA, OD [11]: 0.1 OD
Kd [12]: 70.2 nM
koff [12]: 0.105 s⁻¹
kon [12]: 1.43e+06 M⁻¹ s⁻¹
Kd [13]: 108 nM
koff [13]: 0.107 s⁻¹
Substance: ch4-4-20 Mut23 (K334E, R292L) (antibody)
ADCC, % [6]: 25%

fold change vs wild-type affinity [14]: 0.7 fold
fold change vs wild-type affinity (FcγRIIB (CD32B) (human) [15]): 1.6 fold
fold change vs wild-type affinity [16]: 0.3 fold
fold change vs wild-type affinity [17]: 0.6 fold
Koff WT/Koff mutant [18]: 1.73
Koff WT/Koff mutant (FcγRIIB (CD32B) (human) [19]): 2.58
Koff WT/Koff mutant [20]: 1.27
Koff WT/Koff mutant [21]: 1.73
Koff WT/Koff mutant (FcγRIIB (CD32B) (human) [22]): 2.58
Koff WT/Koff mutant [23]: 1.27
Koff WT/Koff mutant [24]: 1.63
Substance: immunoglobulin with Fc variant P396L (antibody)

ELISA, OD [10]: 0.75 OD
Kd [13]: 45.3 nM
Substance: ch4-4-20 Mut19 (K334N, K246I) (antibody)
ADCC, % [6]: 11%
